Experimental data published in publication PMC3420917, “A Combinatorial Amino Acid Code for RNA Recognition by Pentatricopeptide Repeat Proteins” (PLoS Genetics, 2012).

Assays:
[1] = target: the molecule itself; assay: AUC; sedimentation velocity; rPPR10 alone at 3, 6 and 12 µM; 20°C, 50,000 rpm, interference optics; 250 mM NaCl, 50 mM Tris-HCl pH 7.5, 5 mM ß-mercaptoethanol; monomer to dimer
[2] = target: T1, rPPR10 wild-type (maize, UniProt B8Y6I0 96-786); assay: EMSA; EMSA: radiolabeled RNA 15 pM, protein 0, 5, 10, 20 nM; binding buffer and temperature by reference [12]; protein stock in 400 mM NaCl, 50 mM Tris-HCl pH 7.5, 5; details: protein: recombinant; tags: MBP fusion removed by TEV cleavage; label: radiolabeled; single-stranded
T1 sequence: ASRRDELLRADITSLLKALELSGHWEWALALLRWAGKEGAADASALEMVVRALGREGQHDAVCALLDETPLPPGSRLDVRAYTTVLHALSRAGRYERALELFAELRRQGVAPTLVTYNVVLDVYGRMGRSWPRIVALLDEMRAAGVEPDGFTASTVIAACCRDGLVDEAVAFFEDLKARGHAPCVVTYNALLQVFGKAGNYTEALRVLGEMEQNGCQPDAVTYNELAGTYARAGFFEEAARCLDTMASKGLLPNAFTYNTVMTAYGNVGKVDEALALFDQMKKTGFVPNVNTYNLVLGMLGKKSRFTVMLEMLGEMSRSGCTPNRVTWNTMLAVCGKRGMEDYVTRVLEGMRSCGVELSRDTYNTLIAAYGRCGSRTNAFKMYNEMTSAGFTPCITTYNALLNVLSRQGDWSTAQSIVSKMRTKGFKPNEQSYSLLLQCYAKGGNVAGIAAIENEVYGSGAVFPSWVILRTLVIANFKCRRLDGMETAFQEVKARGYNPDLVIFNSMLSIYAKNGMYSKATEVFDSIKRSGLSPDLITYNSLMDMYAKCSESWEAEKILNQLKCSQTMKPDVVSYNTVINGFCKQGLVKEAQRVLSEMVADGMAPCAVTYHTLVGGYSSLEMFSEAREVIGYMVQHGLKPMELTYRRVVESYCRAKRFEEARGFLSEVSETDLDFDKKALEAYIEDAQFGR

[3] = target: T2, PPR10 TD variant (maize, UniProt B8Y6I0 96-786, N284T;N319T;N349D); assay: EMSA; high affinity; EMSA: radiolabeled RNA 15 pM, protein 0, 5, 10, 20 nM; binding buffer and temperature by reference [12]; protein stock in 400 mM NaCl, 50 mM Tris-HCl pH 7.5, 5; details: protein: recombinant; tags: MBP fusion removed by TEV cleavage; label: radiolabeled; single-stranded
T2 sequence: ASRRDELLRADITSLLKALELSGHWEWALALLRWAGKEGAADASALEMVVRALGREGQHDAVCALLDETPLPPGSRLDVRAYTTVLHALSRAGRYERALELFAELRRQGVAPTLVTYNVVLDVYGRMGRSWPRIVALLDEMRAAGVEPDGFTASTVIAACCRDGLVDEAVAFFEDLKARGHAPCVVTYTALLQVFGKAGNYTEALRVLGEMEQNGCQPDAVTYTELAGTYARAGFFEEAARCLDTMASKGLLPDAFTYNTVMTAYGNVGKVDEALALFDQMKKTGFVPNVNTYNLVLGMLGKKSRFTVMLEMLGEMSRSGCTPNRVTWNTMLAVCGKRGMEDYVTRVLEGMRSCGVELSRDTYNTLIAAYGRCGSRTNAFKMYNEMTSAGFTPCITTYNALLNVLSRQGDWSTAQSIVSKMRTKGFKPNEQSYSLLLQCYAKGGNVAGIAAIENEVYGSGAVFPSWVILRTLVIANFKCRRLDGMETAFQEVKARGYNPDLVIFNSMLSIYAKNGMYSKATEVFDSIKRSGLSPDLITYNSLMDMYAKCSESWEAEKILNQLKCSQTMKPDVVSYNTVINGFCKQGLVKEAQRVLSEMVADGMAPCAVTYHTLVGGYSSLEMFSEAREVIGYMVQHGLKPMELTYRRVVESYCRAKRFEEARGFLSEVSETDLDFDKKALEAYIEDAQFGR

[4] = target: T3, PPR10 TN variant (maize, UniProt B8Y6I0 96-786, N284T;D314N;N319T); assay: as above; details: protein: recombinant; tags: MBP fusion removed by TEV cleavage; label: radiolabeled; single-stranded
T3 sequence: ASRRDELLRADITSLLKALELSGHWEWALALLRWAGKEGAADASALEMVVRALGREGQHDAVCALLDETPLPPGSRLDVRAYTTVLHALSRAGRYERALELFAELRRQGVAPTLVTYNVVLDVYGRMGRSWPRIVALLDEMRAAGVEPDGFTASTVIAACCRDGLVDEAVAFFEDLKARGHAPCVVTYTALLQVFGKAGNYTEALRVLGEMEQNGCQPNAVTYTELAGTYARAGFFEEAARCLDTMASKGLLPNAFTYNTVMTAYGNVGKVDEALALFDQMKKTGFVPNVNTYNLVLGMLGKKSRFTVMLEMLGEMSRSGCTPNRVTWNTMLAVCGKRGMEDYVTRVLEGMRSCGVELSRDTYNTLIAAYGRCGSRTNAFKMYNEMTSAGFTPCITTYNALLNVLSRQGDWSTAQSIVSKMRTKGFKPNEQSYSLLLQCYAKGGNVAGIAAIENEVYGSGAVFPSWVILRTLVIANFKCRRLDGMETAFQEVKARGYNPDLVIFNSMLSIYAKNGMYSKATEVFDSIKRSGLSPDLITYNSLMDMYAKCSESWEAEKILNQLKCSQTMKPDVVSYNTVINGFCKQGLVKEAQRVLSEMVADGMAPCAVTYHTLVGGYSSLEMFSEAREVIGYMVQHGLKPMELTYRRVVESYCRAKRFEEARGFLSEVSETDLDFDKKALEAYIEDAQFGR

[5] = target: T2, PPR10 TD variant; assay: EMSA; EMSA: radiolabeled RNA 15 pM, protein 0, 5, 10, 20 nM; binding buffer and temperature by reference [12]; protein stock in 400 mM NaCl, 50 mM Tris-HCl pH 7.5, 5; details: protein: recombinant; tags: MBP fusion removed by TEV cleavage; label: radiolabeled; single-stranded
[6] = target: T3, PPR10 TN variant; assay: as above; details: protein: recombinant; tags: MBP fusion removed by TEV cleavage; label: radiolabeled; single-stranded

B1: Recombinant PPR10 (natural protein, maize, UniProt B8Y6I0 96-786, looked up)
chain: ASRRDELLRADITSLLKALELSGHWEWALALLRWAGKEGAADASALEMVVRALGREGQHDAVCALLDETPLPPGSRLDVRAYTTVLHALSRAGRYERALELFAELRRQGVAPTLVTYNVVLDVYGRMGRSWPRIVALLDEMRAAGVEPDGFTASTVIAACCRDGLVDEAVAFFEDLKARGHAPCVVTYNALLQVFGKAGNYTEALRVLGEMEQNGCQPDAVTYNELAGTYARAGFFEEAARCLDTMASKGLLPNAFTYNTVMTAYGNVGKVDEALALFDQMKKTGFVPNVNTYNLVLGMLGKKSRFTVMLEMLGEMSRSGCTPNRVTWNTMLAVCGKRGMEDYVTRVLEGMRSCGVELSRDTYNTLIAAYGRCGSRTNAFKMYNEMTSAGFTPCITTYNALLNVLSRQGDWSTAQSIVSKMRTKGFKPNEQSYSLLLQCYAKGGNVAGIAAIENEVYGSGAVFPSWVILRTLVIANFKCRRLDGMETAFQEVKARGYNPDLVIFNSMLSIYAKNGMYSKATEVFDSIKRSGLSPDLITYNSLMDMYAKCSESWEAEKILNQLKCSQTMKPDVVSYNTVINGFCKQGLVKEAQRVLSEMVADGMAPCAVTYHTLVGGYSSLEMFSEAREVIGYMVQHGLKPMELTYRRVVESYCRAKRFEEARGFLSEVSETDLDFDKKALEAYIEDAQFGR
notes: PPR10, maize chloroplast pentatricopeptide repeat protein (19 PPR motifs); mature PPR10 lacking the plastid targeting peptide; monomeric molecular weight of rPPR10 printed as 82.6 kDa; also called rPPR10
B1 was tested, and the “stoichiometry N” value [1] was 2.

GUAGGCUUAACCAUUUC (ssRNA) [GG RNA]: no binding [2]; binds [3].

GUAAACUUAACCAUUUC (ssRNA) [AA RNA]: no binding [2]; binds [4].

GUAUCCUUAACCAUUUC (ssRNA) [wild-type RNA (EMSA)]: no binding [5]; no binding [6].
